One may read the stoichiometry N as a count of units in the complex or per binding partner.

Experimental findings from article PMC9042962 are described below.

The assay deals with GFP-BLM (full-length Bloom helicase, GFP fusion protein) (human) (UniProt P54132). Put plainly: photobleaching step counting (single-molecule TIRFM, DNA curtain); GFP-tagged BLM (0.2 nM injected) bound to the free ends (30-nt 3' ssDNA overhang) of lambda-DNA tethered to a lipid bilayer; number of GFP photobleaching steps per end-bound complex; BLM buffer (20 mM Tris-HCl pH 7.5, 1 mM MgCl2, 2 mM ATP, 1 mM DTT, 0.2 mg/ml BSA), 37 °C; oligomer counted on DNA ends.

Substance “GFP-BLM (full-length Bloom helicase, GFP fusion protein), P54132 1-1417 (enzyme; other documents disagree on this pair)” registered a stoichiometry N of 1 to 6 monomers and a stoichiometry N (BLM monomers per DNA end) of 3.6.
